# Assay results as given in the supplement of paper PMC10065799, “High-throughput profiling of sequence recognition by tyrosine kinases and SH2 domains using bacterial peptide display” (eLife, 2023).
# Tested on: AncSZ
# Assay: phosphorylation enrichment, bacterial display (enrichment ratio); higher = better substrate or ligand; peptides without Tyr show the background
# 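Also: 11-residue human phosphosite peptides and single-mutation variants displayed on the E. coli surface, counted by deep sequencing, each peptide's frequency after selection divided by its frequency in the unselected input library; frequency after pTyr selection over input frequency; kinase dosed for 20-30% of maximal phosphorylation in three min.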
row,Sequence,phosphorylation enrichment
1,ALMGLYHGQVL [HADHA_Y343],0.605
2,TVVVPYEPPEV [TP53_Y220_S215T],1.08
3,PATINYPFEKG [NDUFS8_Y84],0.88
4,GSRGKYFSGFR [ATM_Y332_S333F],0.547
5,QLQTNYPSSDN [MAX_Y115],0.951
6,GYDHSYYFIAT [ESD_Y262],2.05
7,IFGVSYGEFRF [CFTR_Y512_D513G_YF],0.941
8,RPYSPYIIRGM [LRP5_Y1531_R1529S],0.886
9,RHPLDYLRQYP [NARS2_Y138_E137D],0.914
10,ISPPVYLTNEW [NRK_Y885],1.13
11,SMGHRYIEVFR [HNRNPF_Y82_K87R],0.622
12,PPVVNYEEDAR [FER_Y402],1.26
13,ALVFLSFCIIF [SIGLEC12_Y494_Y494S],1.05
14,PEADKYHLTFA [FGG_Y300_R301H_YF],1.88
15,LQPNNCQFCGG [CSF1R_Y969_Y969C],0.929
16,VASSLYDIFAR [GLB1_Y294_L297F],1.09
17,YIRKDYEACKA [BBS4_Y48],0.553

row,Sequence,phosphorylation enrichment
1,IIRQLYLKWHP [SACS_Y4333_R4331Q],0.888
2,AVLSLYASGRN [ACTA1_Y145_T150N],0.858
3,GGFTRYCDGKK [PROS1_Y266_C265R_YF],0.771
4,LKMLVYMDMSK [LRRC7_Y234_L235M],1.45
5,PRIKTYMRPSP [TDP1_Y497_H493R],0.493
6,DRPSEYAARQL [ANXA13_Y90],0.598
7,ADEEFYEIIAA [FEStide_F_2014],2.54
8,KFANSYRMEPL [TCTE3_Y87],0.574
9,SYKNKYGMVAQ [APOB_Y276],0.555
10,SKKVRYVVSKA [BARD1_Y156],0.474
11,CGASGYSATST [CERT1_Y143_S138C],1.02
12,NGLVAYKDGKL [PMM2_Y76],0.602
13,EFKDAYTFAAD [BRDT_Y335_K336T_YF],1.09
14,ETLLFYGCRRS [POR_Y564_YF],0.749
15,NVQIVYKPVDL [MAPT_Y627_S622N],0.955
16,ALEHKYWALGQ [MAP1A_Y1555_Q1553H],0.859

# Biological target: EPHB2 (UniProt P29323)
# Assay: as above
# Chain of EPHB2 (P29323 whole entry, looked up): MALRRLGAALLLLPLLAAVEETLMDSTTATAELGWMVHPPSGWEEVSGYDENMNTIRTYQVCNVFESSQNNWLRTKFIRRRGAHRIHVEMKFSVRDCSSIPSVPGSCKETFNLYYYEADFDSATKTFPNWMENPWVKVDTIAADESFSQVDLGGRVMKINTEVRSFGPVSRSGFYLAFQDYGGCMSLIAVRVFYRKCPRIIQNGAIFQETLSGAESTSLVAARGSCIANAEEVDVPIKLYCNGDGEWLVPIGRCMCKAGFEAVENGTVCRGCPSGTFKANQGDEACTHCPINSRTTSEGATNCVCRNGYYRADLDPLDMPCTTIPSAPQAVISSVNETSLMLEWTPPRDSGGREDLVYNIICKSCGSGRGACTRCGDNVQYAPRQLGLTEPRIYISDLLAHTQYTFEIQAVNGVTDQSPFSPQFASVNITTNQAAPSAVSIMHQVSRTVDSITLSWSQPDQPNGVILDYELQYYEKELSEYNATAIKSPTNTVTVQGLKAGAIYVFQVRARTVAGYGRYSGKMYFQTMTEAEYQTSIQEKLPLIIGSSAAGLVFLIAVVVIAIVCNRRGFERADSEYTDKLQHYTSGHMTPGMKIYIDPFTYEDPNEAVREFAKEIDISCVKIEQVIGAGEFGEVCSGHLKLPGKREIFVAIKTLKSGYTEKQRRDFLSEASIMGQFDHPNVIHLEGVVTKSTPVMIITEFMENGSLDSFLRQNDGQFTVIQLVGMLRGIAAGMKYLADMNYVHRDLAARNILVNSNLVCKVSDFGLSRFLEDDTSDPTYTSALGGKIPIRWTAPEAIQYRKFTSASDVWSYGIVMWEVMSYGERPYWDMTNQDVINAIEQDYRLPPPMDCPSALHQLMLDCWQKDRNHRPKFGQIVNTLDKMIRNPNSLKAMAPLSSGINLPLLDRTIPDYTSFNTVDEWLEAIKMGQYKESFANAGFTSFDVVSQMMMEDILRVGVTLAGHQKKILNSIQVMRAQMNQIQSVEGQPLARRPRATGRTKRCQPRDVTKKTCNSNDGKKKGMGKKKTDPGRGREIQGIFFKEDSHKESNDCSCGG
row,Sequence,phosphorylation enrichment
1,ALMGLYHGQVL [HADHA_Y343],0.649
2,TVVVPYEPPEV [TP53_Y220_S215T],0.439
3,PATINYPFEKG [NDUFS8_Y84],0.218
4,GSRGKYFSGFR [ATM_Y332_S333F],0.399
5,QLQTNYPSSDN [MAX_Y115],0.766
6,GYDHSYYFIAT [ESD_Y262],1.24
7,IFGVSYGEFRF [CFTR_Y512_D513G_YF],0.561
8,RPYSPYIIRGM [LRP5_Y1531_R1529S],0.575
9,RHPLDYLRQYP [NARS2_Y138_E137D],0.96
10,ISPPVYLTNEW [NRK_Y885],0.724
11,SMGHRYIEVFR [HNRNPF_Y82_K87R],0.576
12,PPVVNYEEDAR [FER_Y402],0.892
13,ALVFLSFCIIF [SIGLEC12_Y494_Y494S],0.489
14,PEADKYHLTFA [FGG_Y300_R301H_YF],0.788
15,LQPNNCQFCGG [CSF1R_Y969_Y969C],0.711
16,VASSLYDIFAR [GLB1_Y294_L297F],1.81
17,YIRKDYEACKA [BBS4_Y48],0.398

row,Sequence,phosphorylation enrichment
1,IIRQLYLKWHP [SACS_Y4333_R4331Q],0.444
2,AVLSLYASGRN [ACTA1_Y145_T150N],0.557
3,GGFTRYCDGKK [PROS1_Y266_C265R_YF],0.315
4,LKMLVYMDMSK [LRRC7_Y234_L235M],0.804
5,PRIKTYMRPSP [TDP1_Y497_H493R],0.465
6,DRPSEYAARQL [ANXA13_Y90],0.456
7,ADEEFYEIIAA [FEStide_F_2014],0.77
8,KFANSYRMEPL [TCTE3_Y87],0.409
9,SYKNKYGMVAQ [APOB_Y276],0.333
10,SKKVRYVVSKA [BARD1_Y156],0.334
11,CGASGYSATST [CERT1_Y143_S138C],0.706
12,NGLVAYKDGKL [PMM2_Y76],0.403
13,EFKDAYTFAAD [BRDT_Y335_K336T_YF],0.519
14,ETLLFYGCRRS [POR_Y564_YF],0.458
15,NVQIVYKPVDL [MAPT_Y627_S622N],0.492
16,ALEHKYWALGQ [MAP1A_Y1555_Q1553H],0.539

# Biological target: Fes (UniProt P07332)
# Assay: as above
# Chain of Fes (P07332 whole entry, looked up): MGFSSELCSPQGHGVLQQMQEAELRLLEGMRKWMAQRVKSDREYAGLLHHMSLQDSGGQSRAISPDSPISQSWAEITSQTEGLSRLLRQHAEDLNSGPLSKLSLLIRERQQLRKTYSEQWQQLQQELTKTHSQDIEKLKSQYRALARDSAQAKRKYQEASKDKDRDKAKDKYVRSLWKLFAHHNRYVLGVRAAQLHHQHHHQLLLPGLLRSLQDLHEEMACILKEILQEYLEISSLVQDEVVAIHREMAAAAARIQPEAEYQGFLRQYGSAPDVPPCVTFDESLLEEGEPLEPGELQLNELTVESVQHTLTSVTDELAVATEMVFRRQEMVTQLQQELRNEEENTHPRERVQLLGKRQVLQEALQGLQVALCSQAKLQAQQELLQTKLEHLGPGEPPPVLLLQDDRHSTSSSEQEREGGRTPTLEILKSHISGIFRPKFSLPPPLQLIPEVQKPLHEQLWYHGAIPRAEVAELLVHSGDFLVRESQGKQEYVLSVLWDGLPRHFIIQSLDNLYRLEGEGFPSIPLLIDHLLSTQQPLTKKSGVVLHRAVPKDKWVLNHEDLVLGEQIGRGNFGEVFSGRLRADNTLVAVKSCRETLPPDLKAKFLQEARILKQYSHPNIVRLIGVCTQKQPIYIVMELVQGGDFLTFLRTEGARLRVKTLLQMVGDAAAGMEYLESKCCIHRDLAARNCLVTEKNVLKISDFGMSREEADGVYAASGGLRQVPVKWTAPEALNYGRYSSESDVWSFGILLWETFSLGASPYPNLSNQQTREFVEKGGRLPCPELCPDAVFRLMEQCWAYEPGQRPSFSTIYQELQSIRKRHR
row,Sequence,phosphorylation enrichment
1,ALMGLYHGQVL [HADHA_Y343],0.823
2,TVVVPYEPPEV [TP53_Y220_S215T],1.16
3,PATINYPFEKG [NDUFS8_Y84],1.18
4,GSRGKYFSGFR [ATM_Y332_S333F],0.736
5,QLQTNYPSSDN [MAX_Y115],1.14
6,GYDHSYYFIAT [ESD_Y262],1.22
7,IFGVSYGEFRF [CFTR_Y512_D513G_YF],1.09
8,RPYSPYIIRGM [LRP5_Y1531_R1529S],0.816
9,RHPLDYLRQYP [NARS2_Y138_E137D],1.15
10,ISPPVYLTNEW [NRK_Y885],1.09
11,SMGHRYIEVFR [HNRNPF_Y82_K87R],0.691
12,PPVVNYEEDAR [FER_Y402],1.86
13,ALVFLSFCIIF [SIGLEC12_Y494_Y494S],0.865
14,PEADKYHLTFA [FGG_Y300_R301H_YF],1.8
15,LQPNNCQFCGG [CSF1R_Y969_Y969C],0.858
16,VASSLYDIFAR [GLB1_Y294_L297F],0.948
17,YIRKDYEACKA [BBS4_Y48],0.464

row,Sequence,phosphorylation enrichment
1,IIRQLYLKWHP [SACS_Y4333_R4331Q],1.02
2,AVLSLYASGRN [ACTA1_Y145_T150N],0.989
3,GGFTRYCDGKK [PROS1_Y266_C265R_YF],0.722
4,LKMLVYMDMSK [LRRC7_Y234_L235M],2.25
5,PRIKTYMRPSP [TDP1_Y497_H493R],0.65
6,DRPSEYAARQL [ANXA13_Y90],0.655
7,ADEEFYEIIAA [FEStide_F_2014],1.57
8,KFANSYRMEPL [TCTE3_Y87],0.623
9,SYKNKYGMVAQ [APOB_Y276],0.674
10,SKKVRYVVSKA [BARD1_Y156],0.569
11,CGASGYSATST [CERT1_Y143_S138C],1.08
12,NGLVAYKDGKL [PMM2_Y76],0.612
13,EFKDAYTFAAD [BRDT_Y335_K336T_YF],0.959
14,ETLLFYGCRRS [POR_Y564_YF],0.675
15,NVQIVYKPVDL [MAPT_Y627_S622N],0.903
16,ALEHKYWALGQ [MAP1A_Y1555_Q1553H],0.966

# Biological target: EPHB1 (UniProt P54762)
# Assay: as above
# Chain of EPHB1 (P54762 whole entry, looked up): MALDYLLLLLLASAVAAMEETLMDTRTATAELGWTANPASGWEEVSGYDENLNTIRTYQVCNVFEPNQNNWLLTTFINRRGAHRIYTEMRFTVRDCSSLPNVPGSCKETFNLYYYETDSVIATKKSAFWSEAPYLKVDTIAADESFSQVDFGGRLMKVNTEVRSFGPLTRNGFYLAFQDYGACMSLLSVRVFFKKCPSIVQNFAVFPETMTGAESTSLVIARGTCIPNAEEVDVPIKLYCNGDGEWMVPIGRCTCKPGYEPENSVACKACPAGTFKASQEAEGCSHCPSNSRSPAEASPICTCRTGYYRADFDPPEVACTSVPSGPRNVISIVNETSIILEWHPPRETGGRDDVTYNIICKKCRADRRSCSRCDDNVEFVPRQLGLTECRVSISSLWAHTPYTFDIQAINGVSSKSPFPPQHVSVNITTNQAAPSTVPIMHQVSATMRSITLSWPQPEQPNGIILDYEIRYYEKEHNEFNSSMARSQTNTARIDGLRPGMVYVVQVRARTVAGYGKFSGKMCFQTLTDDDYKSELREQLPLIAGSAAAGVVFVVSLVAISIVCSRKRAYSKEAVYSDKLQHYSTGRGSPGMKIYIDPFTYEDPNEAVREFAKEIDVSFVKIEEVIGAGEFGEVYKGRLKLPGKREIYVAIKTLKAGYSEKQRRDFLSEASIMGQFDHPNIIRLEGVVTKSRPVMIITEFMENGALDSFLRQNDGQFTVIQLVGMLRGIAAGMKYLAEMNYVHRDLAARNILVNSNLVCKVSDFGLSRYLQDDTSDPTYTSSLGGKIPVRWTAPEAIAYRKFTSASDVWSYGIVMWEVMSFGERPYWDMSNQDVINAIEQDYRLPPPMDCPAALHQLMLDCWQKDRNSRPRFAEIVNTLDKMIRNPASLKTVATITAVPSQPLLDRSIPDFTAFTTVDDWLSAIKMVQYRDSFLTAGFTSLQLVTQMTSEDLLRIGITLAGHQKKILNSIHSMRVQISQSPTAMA
row,Sequence,phosphorylation enrichment
1,ALMGLYHGQVL [HADHA_Y343],0.545
2,TVVVPYEPPEV [TP53_Y220_S215T],0.548
3,PATINYPFEKG [NDUFS8_Y84],0.65
4,GSRGKYFSGFR [ATM_Y332_S333F],0.425
5,QLQTNYPSSDN [MAX_Y115],0.583
6,GYDHSYYFIAT [ESD_Y262],1.95
7,IFGVSYGEFRF [CFTR_Y512_D513G_YF],0.576
8,RPYSPYIIRGM [LRP5_Y1531_R1529S],0.59
9,RHPLDYLRQYP [NARS2_Y138_E137D],0.799
10,ISPPVYLTNEW [NRK_Y885],0.694
11,SMGHRYIEVFR [HNRNPF_Y82_K87R],0.451
12,PPVVNYEEDAR [FER_Y402],0.957
13,ALVFLSFCIIF [SIGLEC12_Y494_Y494S],0.329
14,PEADKYHLTFA [FGG_Y300_R301H_YF],2.12
15,LQPNNCQFCGG [CSF1R_Y969_Y969C],0.735
16,VASSLYDIFAR [GLB1_Y294_L297F],1.46
17,YIRKDYEACKA [BBS4_Y48],0.469

row,Sequence,phosphorylation enrichment
1,IIRQLYLKWHP [SACS_Y4333_R4331Q],0.469
2,AVLSLYASGRN [ACTA1_Y145_T150N],0.519
3,GGFTRYCDGKK [PROS1_Y266_C265R_YF],0.393
4,LKMLVYMDMSK [LRRC7_Y234_L235M],1.79
5,PRIKTYMRPSP [TDP1_Y497_H493R],0.317
6,DRPSEYAARQL [ANXA13_Y90],0.408
7,ADEEFYEIIAA [FEStide_F_2014],0.886
8,KFANSYRMEPL [TCTE3_Y87],0.43
9,SYKNKYGMVAQ [APOB_Y276],0.333
10,SKKVRYVVSKA [BARD1_Y156],0.309
11,CGASGYSATST [CERT1_Y143_S138C],0.55
12,NGLVAYKDGKL [PMM2_Y76],0.341
13,EFKDAYTFAAD [BRDT_Y335_K336T_YF],0.452
14,ETLLFYGCRRS [POR_Y564_YF],0.468
15,NVQIVYKPVDL [MAPT_Y627_S622N],0.507
16,ALEHKYWALGQ [MAP1A_Y1555_Q1553H],0.546
